Experimental data as given in the supplement of paper PMC10567573.

B1: PPEF2 (parent)
chain: FIPSSHNDRDFLTRIFTEDRFAQD
B2: RHOBTB2 (parent)
chain: HHHHGRDFLLRAASFDVCESVDEA

Variants of: B1
Assay: protein stability index of a GFP-peptide fusion (GPS, HEK-293T) (PSI 1-6); higher = more stable
Conditions: c terminus: a fixed tail appended
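Also: lentivirally expressed fusions sorted by FACS into six bins by GFP to DsRed ratio, PSI derived from sequencing read proportions per bin multiplied by bin number.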

Protein stability index of substitutions, site by site:
F21: L 2.27, T 1.75, R 1.75, H 1.87, A 1.59, N 2.54
Q23: P 3.1, S 2.35, A 1.96, N 2.68, C 2.27, T 3.01, L 2.06
F1: V 3.88, Y 1.63, N 4.05, I 3.54, E 4.06
S5: Y 1.97, V 2.09, N 1.92, R 2.03, Q 2.55
I15: P 1.91, M 2.24, W 2.66, S 1.84, E 2.44
T13: P 1.82, V 1.8, Q 1.55, C 2.75
F16: R 1.88, D 2.18, I 1.83, E 2.02, K 1.47, Y 1.21, T 2.59
R9: K 2.48, E 1.89, Q 1.53
R20: I 1.32, H 3.22, A 2.05, T 1.47, Q 2.15, D 2.42, M 1.39, P 2.41
I2: P 1.78, L 2.96, G 2.62, F 3.32, C 1.46
L12: R 1.72, M 1.53, S 1.54, P 1.74, C 2.29
D19: W 1.99, G 2.46, C 2.12, H 1.54
R14: D 2.5, G 1.95, A 1.58, H 2.04, C 1.78, T 2.36
F11: T 1.7, L 1.56, V 2.01, D 2.74, S 1.58, I 1.8, A 1.98, K 1.76
E18: R 2.16, D 2.37
P3: I 2.19, T 1.99, Y 1.84, W 2.3, A 2.23, S 1.91, G 2.1, H 2.35, V 1.97
D24: P 1.73, V 2.79, Q 1.27, R 2.19, H 3.06, S 2.93, E 1.95, T 1.52, Y 1.9
N7: Q 2.46, L 1.97, T 2.17, S 1.73, I 2.11, D 1.56, F 1.89
D10: S 2.37, I 3.22, T 2.54, A 2.69, H 2.8, F 2.05
H6: F 1.21, E 1.99, Y 2.21, D 2.56, G 2.07, S 1.91
A22: T 1.93, Y 1.61, S 1.63, C 1.95, F 2.07
D8: P 1.89, T 2.1, C 2.03, E 1.53, G 2.51
S4: F 1.99, A 2.19, W 2.19
T17: C 3.8, K 3.08, E 2.19, H 1.54, W 2.79

Variants of: B2
Assay: as above
Conditions: c terminus: a fixed tail appended

Protein stability index: each site, then its substitutions
V21: S 3.62, K 4.5, F 3.47, I 3.96, C 3.25, A 3.8, W 3.61, D 4.84, Q 4.2, H 3.08, Y 3.66, L 3.62, R 3.68, M 3.92, T 3.56, G 4.17, N 4.18, P 3.61, E 4.51
E23: L 2.02, Y 2.83, V 2.45, K 2.57, P 3.65, C 2.67, T 3.13, A 2.94, I 2.92, W 2.52, Q 3.66, N 3.26, F 2.37, G 3.21, H 2.93, D 3.39, S 3.25, R 3.37, M 3.34
F15: K 4.58, W 3.94, H 4.11, V 4.33, C 4.57, M 4.74, T 4.74, Q 4.1, E 4.86, L 3.24, P 4.37, I 3.94, N 4.35, S 4.76, G 4.38, D 5.01, R 4.88, Y 3.92, A 4.78
E19: Y 1.74, I 2.17, A 2.9, D 3.72, R 2.73, M 2.44, T 2.76, P 3.06, N 3.54, V 2.49, F 2.22, C 2.42, G 3.07, K 3, H 2.9, W 2.2, L 1.56, Q 3.34, S 2.71
A24: F 2.65, Y 3.29, T 3.95, G 3.88, E 4.15, P 3.56, D 4.26, H 3.92, M 3.61, W 2.53, N 3.59, Q 3.86, L 3.75, C 3.04, I 3.17, V 3.27, R 3.75, K 3.85, S 3.82
C18: Y 2.82, S 4.06, W 2.48, G 4.24, P 4.42, I 3.57, T 3.7, Q 4.03, M 3.37, E 4.77, D 4.75, F 3.54, V 3.95, H 3.4, A 3.96, K 3.94, L 2.9, R 3.65, N 4.21
S20: D 4.1, E 4.46, Y 3.21, P 3.76, L 3.16, C 2.94, I 2.73, F 2.88, A 3.08, R 3.34, M 2.71, G 4.1, W 2.39, V 3.03, H 2.81, K 4.12, Q 3.83, T 4, N 3.98
V17: Q 4.24, I 3.37, M 3.68, H 3.55, C 4.17, K 3.94, P 4.7, N 4, S 4.11, A 4.04, F 3.12, W 3, R 3.52, Y 4.16, L 3.2, D 4.54, T 3.53, G 3.99, E 4.56
D22: T 3, N 3.14, Y 2.44, E 3.77, K 3.33, C 2.56, V 2.91, W 1.82, L 2.33, P 2.85, G 3, Q 3.09, A 3, S 3.44, R 3.15, F 2.21, H 2.99, I 2.5, M 3.04
D16: R 2.48, C 1.97, G 3.06, L 2.11, H 2.84, T 3.36, N 3.31, M 2.44, I 2.14, E 3.74, Y 1.67, F 1.89, A 3.37, Q 3.5, S 3.17, K 2.79, P 3.19, V 2.33
S14: W 2.66, Q 4.17, T 3.47, M 3.05, V 2.84, L 2.88, R 2.62, P 4.22, Y 2.79, N 4.5
